# Data published in patent publication US20150344540A1, “NOVEL GLP-1 RECEPTOR AGONISTS WITH CHOLESTEROL EFFLUX ACTIVITY” (NOVO NORDISK A/S, priority 2012, published 2015).
# Where no end group is shown, it is not given here. [ ]: non-standard residue; d: D form. The star is where a group is joined. Desaminohistidyl = O=C(CCc1c[nH]cn1)*; Aib = CC(C)(N)C(=O)O
# Target: human GLP-1 receptor (human, UniProt P43220)
# Assay: cell-based or functional assay
Binder,"CRE luciferase EC50, 0% HSA [nM]","CRE luciferase EC50, 1% HSA [nM]"
"[Desaminohistidyl][Aib]EGTFTSDVSSYLEGEAVKEFIAWLVEKVKEFL-NH2 (SMILES CC[C@H](C)[C@H](NC(=O)[C@H](Cc1ccccc1)NC(=O)[C@H](CCC(=O)O)NC(=O)[C@H](CCCCN)NC(=O)[C@@H](NC(=O)[C@H](C)NC(=O)[C@H](CCC(=O)O)NC(=O)CNC(=O)[C@H](CCC(=O)O)NC(=O)[C@H](CC(C)C)NC(=O)[C@H](Cc1ccc(O)cc1)NC(=O)[C@H](CO)NC(=O)[C@H](CO)NC(=O)[C@@H](NC(=O)[C@H](CC(=O)O)NC(=O)[C@H](CO)NC(=O)[C@@H](NC(=O)[C@H](Cc1ccccc1)NC(=O)[C@@H](NC(=O)CNC(=O)[C@H](CCC(=O)O)NC(=O)C(C)(C)NC(=O)CCc1c[nH]cn1)[C@@H](C)O)[C@@H](C)O)C(C)C)C(C)C)C(=O)N[C@@H](C)C(=O)N[C@@H](Cc1c[nH]c2ccccc12)C(=O)N[C@@H](CC(C)C)C(=O)N[C@H](C(=O)N[C@@H](CCC(=O)O)C(=O)N[C@@H](CCCCN)C(=O)N[C@H](C(=O)N[C@@H](CCCCN)C(=O)N[C@@H](CCC(=O)O)C(=O)N[C@@H](Cc1ccccc1)C(=O)N[C@@H](CC(C)C)C(N)=O)C(C)C)C(C)C) [[desamino-His7,Aib8,Glu23,Val25,Glu34,Lys35,Val36,Lys37]-GLP-1-(7-37)-peptidyl-Glu-Phe-Leu amide]",0.886,0.242
"HGEGTFTSDVSSYLEGEAVKEFIAWLVEKVKEHL-NH2 [[Gly8,Glu23,Val25,Glu34,Lys35,Val36,Lys37]-GLP-1-(7-37)-peptidyl-Glu-His-Leu amide]",0.337,0.096
"H[Aib]EGTFTSDVSSYLEGEAVKEFIQWLLEK[Aib]KEFL-NH2 (N-terminus assumed; SMILES CC[C@H](C)[C@H](NC(=O)[C@H](Cc1ccccc1)NC(=O)[C@H](CCC(=O)O)NC(=O)[C@H](CCCCN)NC(=O)[C@@H](NC(=O)[C@H](C)NC(=O)[C@H](CCC(=O)O)NC(=O)CNC(=O)[C@H](CCC(=O)O)NC(=O)[C@H](CC(C)C)NC(=O)[C@H](Cc1ccc(O)cc1)NC(=O)[C@H](CO)NC(=O)[C@H](CO)NC(=O)[C@@H](NC(=O)[C@H](CC(=O)O)NC(=O)[C@H](CO)NC(=O)[C@@H](NC(=O)[C@H](Cc1ccccc1)NC(=O)[C@@H](NC(=O)CNC(=O)[C@H](CCC(=O)O)NC(=O)C(C)(C)NC(=O)[C@@H](N)Cc1c[nH]cn1)[C@@H](C)O)[C@@H](C)O)C(C)C)C(C)C)C(=O)N[C@@H](CCC(N)=O)C(=O)N[C@@H](Cc1c[nH]c2ccccc12)C(=O)N[C@@H](CC(C)C)C(=O)N[C@@H](CC(C)C)C(=O)N[C@@H](CCC(=O)O)C(=O)N[C@@H](CCCCN)C(=O)NC(C)(C)C(=O)N[C@@H](CCCCN)C(=O)N[C@@H](CCC(=O)O)C(=O)N[C@@H](Cc1ccccc1)C(=O)N[C@@H](CC(C)C)C(N)=O) [[Aib8,Glu23,Val25,Gln30,Leu33,Glu34,Lys35,Aib36,Lys37]-GLP-1-(7-37)-peptidyl-Glu-Phe-Leu amide]",0.238,0.061
H[Aib]EGTFTSDVSSYLEGEAVREFVQWLLEK[Aib]KEFL-NH2 (N-terminus assumed; SMILES CC(C)C[C@H](NC(=O)[C@H](Cc1ccccc1)NC(=O)[C@H](CCC(=O)O)NC(=O)[C@H](CCCCN)NC(=O)C(C)(C)NC(=O)[C@H](CCCCN)NC(=O)[C@H](CCC(=O)O)NC(=O)[C@H](CC(C)C)NC(=O)[C@H](CC(C)C)NC(=O)[C@H](Cc1c[nH]c2ccccc12)NC(=O)[C@H](CCC(N)=O)NC(=O)[C@@H](NC(=O)[C@H](Cc1ccccc1)NC(=O)[C@H](CCC(=O)O)NC(=O)[C@H](CCCNC(=N)N)NC(=O)[C@@H](NC(=O)[C@H](C)NC(=O)[C@H](CCC(=O)O)NC(=O)CNC(=O)[C@H](CCC(=O)O)NC(=O)[C@H](CC(C)C)NC(=O)[C@H](Cc1ccc(O)cc1)NC(=O)[C@H](CO)NC(=O)[C@H](CO)NC(=O)[C@@H](NC(=O)[C@H](CC(=O)O)NC(=O)[C@H](CO)NC(=O)[C@@H](NC(=O)[C@H](Cc1ccccc1)NC(=O)[C@@H](NC(=O)CNC(=O)[C@H](CCC(=O)O)NC(=O)C(C)(C)NC(=O)[C@@H](N)Cc1c[nH]cn1)[C@@H](C)O)[C@@H](C)O)C(C)C)C(C)C)C(C)C)C(N)=O),0.094,0.029
"H[Aib]EGTFTSDVSSYLEGEAVREFIAWLVEK[Aib]KEFL-NH2 (N-terminus assumed; SMILES CC[C@H](C)[C@H](NC(=O)[C@H](Cc1ccccc1)NC(=O)[C@H](CCC(=O)O)NC(=O)[C@H](CCCNC(=N)N)NC(=O)[C@@H](NC(=O)[C@H](C)NC(=O)[C@H](CCC(=O)O)NC(=O)CNC(=O)[C@H](CCC(=O)O)NC(=O)[C@H](CC(C)C)NC(=O)[C@H](Cc1ccc(O)cc1)NC(=O)[C@H](CO)NC(=O)[C@H](CO)NC(=O)[C@@H](NC(=O)[C@H](CC(=O)O)NC(=O)[C@H](CO)NC(=O)[C@@H](NC(=O)[C@H](Cc1ccccc1)NC(=O)[C@@H](NC(=O)CNC(=O)[C@H](CCC(=O)O)NC(=O)C(C)(C)NC(=O)[C@@H](N)Cc1c[nH]cn1)[C@@H](C)O)[C@@H](C)O)C(C)C)C(C)C)C(=O)N[C@@H](C)C(=O)N[C@@H](Cc1c[nH]c2ccccc12)C(=O)N[C@@H](CC(C)C)C(=O)N[C@H](C(=O)N[C@@H](CCC(=O)O)C(=O)N[C@@H](CCCCN)C(=O)NC(C)(C)C(=O)N[C@@H](CCCCN)C(=O)N[C@@H](CCC(=O)O)C(=O)N[C@@H](Cc1ccccc1)C(=O)N[C@@H](CC(C)C)C(N)=O)C(C)C) [[Aib8,Glu23,Val25,Arg26,Glu34,Lys35,Aib36,Lys37]-GLP-1-(7-37)-peptidyl-Glu-Phe-Leu amide]",0.076,0.028
"H[Aib]EGTFTSDVSSYLEGEAVKEFVAWLVEK[Aib]KEFL-NH2 (N-terminus assumed; SMILES CC(C)C[C@H](NC(=O)[C@H](Cc1ccccc1)NC(=O)[C@H](CCC(=O)O)NC(=O)[C@H](CCCCN)NC(=O)C(C)(C)NC(=O)[C@H](CCCCN)NC(=O)[C@H](CCC(=O)O)NC(=O)[C@@H](NC(=O)[C@H](CC(C)C)NC(=O)[C@H](Cc1c[nH]c2ccccc12)NC(=O)[C@H](C)NC(=O)[C@@H](NC(=O)[C@H](Cc1ccccc1)NC(=O)[C@H](CCC(=O)O)NC(=O)[C@H](CCCCN)NC(=O)[C@@H](NC(=O)[C@H](C)NC(=O)[C@H](CCC(=O)O)NC(=O)CNC(=O)[C@H](CCC(=O)O)NC(=O)[C@H](CC(C)C)NC(=O)[C@H](Cc1ccc(O)cc1)NC(=O)[C@H](CO)NC(=O)[C@H](CO)NC(=O)[C@@H](NC(=O)[C@H](CC(=O)O)NC(=O)[C@H](CO)NC(=O)[C@@H](NC(=O)[C@H](Cc1ccccc1)NC(=O)[C@@H](NC(=O)CNC(=O)[C@H](CCC(=O)O)NC(=O)C(C)(C)NC(=O)[C@@H](N)Cc1c[nH]cn1)[C@@H](C)O)[C@@H](C)O)C(C)C)C(C)C)C(C)C)C(C)C)C(N)=O) [[Aib8,Glu23,Val25,Val29,Glu34,Lys35,Aib36,Lys37]-GLP-1-(7-37)-peptidyl-Glu-Phe-Leu amide]",0.111,0.036
"H[Aib]EGTFTSDVSSYLEGEAVKEFIQWLVEK[Aib]KEFL-NH2 (N-terminus assumed; SMILES CC[C@H](C)[C@H](NC(=O)[C@H](Cc1ccccc1)NC(=O)[C@H](CCC(=O)O)NC(=O)[C@H](CCCCN)NC(=O)[C@@H](NC(=O)[C@H](C)NC(=O)[C@H](CCC(=O)O)NC(=O)CNC(=O)[C@H](CCC(=O)O)NC(=O)[C@H](CC(C)C)NC(=O)[C@H](Cc1ccc(O)cc1)NC(=O)[C@H](CO)NC(=O)[C@H](CO)NC(=O)[C@@H](NC(=O)[C@H](CC(=O)O)NC(=O)[C@H](CO)NC(=O)[C@@H](NC(=O)[C@H](Cc1ccccc1)NC(=O)[C@@H](NC(=O)CNC(=O)[C@H](CCC(=O)O)NC(=O)C(C)(C)NC(=O)[C@@H](N)Cc1c[nH]cn1)[C@@H](C)O)[C@@H](C)O)C(C)C)C(C)C)C(=O)N[C@@H](CCC(N)=O)C(=O)N[C@@H](Cc1c[nH]c2ccccc12)C(=O)N[C@@H](CC(C)C)C(=O)N[C@H](C(=O)N[C@@H](CCC(=O)O)C(=O)N[C@@H](CCCCN)C(=O)NC(C)(C)C(=O)N[C@@H](CCCCN)C(=O)N[C@@H](CCC(=O)O)C(=O)N[C@@H](Cc1ccccc1)C(=O)N[C@@H](CC(C)C)C(N)=O)C(C)C) [[Aib8,Glu23,Val25,Gln30,Glu34,Lys35,Aib36,Lys37]-GLP-1-(7-37)-peptidyl-Glu-Phe-Leu amide]",0.083,0.042
"H[Aib]EGTFTSDVSSYLEGEAVKEFIAWLLEK[Aib]KEFL-NH2 (N-terminus assumed; SMILES CC[C@H](C)[C@H](NC(=O)[C@H](Cc1ccccc1)NC(=O)[C@H](CCC(=O)O)NC(=O)[C@H](CCCCN)NC(=O)[C@@H](NC(=O)[C@H](C)NC(=O)[C@H](CCC(=O)O)NC(=O)CNC(=O)[C@H](CCC(=O)O)NC(=O)[C@H](CC(C)C)NC(=O)[C@H](Cc1ccc(O)cc1)NC(=O)[C@H](CO)NC(=O)[C@H](CO)NC(=O)[C@@H](NC(=O)[C@H](CC(=O)O)NC(=O)[C@H](CO)NC(=O)[C@@H](NC(=O)[C@H](Cc1ccccc1)NC(=O)[C@@H](NC(=O)CNC(=O)[C@H](CCC(=O)O)NC(=O)C(C)(C)NC(=O)[C@@H](N)Cc1c[nH]cn1)[C@@H](C)O)[C@@H](C)O)C(C)C)C(C)C)C(=O)N[C@@H](C)C(=O)N[C@@H](Cc1c[nH]c2ccccc12)C(=O)N[C@@H](CC(C)C)C(=O)N[C@@H](CC(C)C)C(=O)N[C@@H](CCC(=O)O)C(=O)N[C@@H](CCCCN)C(=O)NC(C)(C)C(=O)N[C@@H](CCCCN)C(=O)N[C@@H](CCC(=O)O)C(=O)N[C@@H](Cc1ccccc1)C(=O)N[C@@H](CC(C)C)C(N)=O) [[Aib8,Glu23,Val25,Leu33,Glu34,Lys35,Aib36,Lys37]-GLP-1-(7-37)-peptidyl-Glu-Phe-Leu amide]",0.203,0.076
"H[Aib]EGTFTSDVSSYLEGEAVKEFIKWLVEKLKEFL-NH2 (N-terminus assumed; SMILES CC[C@H](C)[C@H](NC(=O)[C@H](Cc1ccccc1)NC(=O)[C@H](CCC(=O)O)NC(=O)[C@H](CCCCN)NC(=O)[C@@H](NC(=O)[C@H](C)NC(=O)[C@H](CCC(=O)O)NC(=O)CNC(=O)[C@H](CCC(=O)O)NC(=O)[C@H](CC(C)C)NC(=O)[C@H](Cc1ccc(O)cc1)NC(=O)[C@H](CO)NC(=O)[C@H](CO)NC(=O)[C@@H](NC(=O)[C@H](CC(=O)O)NC(=O)[C@H](CO)NC(=O)[C@@H](NC(=O)[C@H](Cc1ccccc1)NC(=O)[C@@H](NC(=O)CNC(=O)[C@H](CCC(=O)O)NC(=O)C(C)(C)NC(=O)[C@@H](N)Cc1c[nH]cn1)[C@@H](C)O)[C@@H](C)O)C(C)C)C(C)C)C(=O)N[C@@H](CCCCN)C(=O)N[C@@H](Cc1c[nH]c2ccccc12)C(=O)N[C@@H](CC(C)C)C(=O)N[C@H](C(=O)N[C@@H](CCC(=O)O)C(=O)N[C@@H](CCCCN)C(=O)N[C@@H](CC(C)C)C(=O)N[C@@H](CCCCN)C(=O)N[C@@H](CCC(=O)O)C(=O)N[C@@H](Cc1ccccc1)C(=O)N[C@@H](CC(C)C)C(N)=O)C(C)C) [[Aib8,Glu23,Val25,Lys30,Glu34,Lys35,Leu36,Lys37]-GLP-1-(7-37)-peptidyl-Glu-Phe-Leu amide]",0.465,0.275
